Measurements as given in patent US11325966.

Tests used:
Assay in all cases: cell-based or functional assay
[1] = target: HIV-1 Env of pseudovirus BJOX025000.01.1 (HIV-1)
[2] = target: HIV-1 Env of pseudovirus 6240_08_TA5_4622 (HIV-1)
[3] = target: HIV-1 Env of pseudovirus CNE5 (HIV-1)
[4] = target: HIV-1 Env of pseudovirus 1012_11_TC21_3257 (HIV-1)
[5] = target: HIV-1 Env of pseudovirus CNE52 (HIV-1)
[6] = target: HIV-1 Env of pseudovirus T278-50 (HIV-1)
[7] = target: HIV-1 Env of pseudovirus T251-18 (HIV-1)
[8] = target: HIV-1 Env of pseudovirus BJOX028000.10.3 (HIV-1)
[9] = target: HIV-1 Env of pseudovirus 1054_07_TC4_1499 (HIV-1)
[10] = target: HIV-1 Env of pseudovirus 191084 B7-19 (HIV-1)
[11] = target: HIV-1 Env of pseudovirus TRO.11 (HIV-1)
[12] = target: HIV-1 Env of pseudovirus SC05_8C11_2344 (HIV-1)
[13] = target: HIV-1 Env of pseudovirus REJO4541.67 (HIV-1)
[14] = target: HIV-1 Env of pseudovirus CNE19 (HIV-1)
[15] = target: HIV-1 Env of pseudovirus 231966.c02 (HIV-1)
[16] = target: HIV-1 Env of pseudovirus CNE58 (HIV-1)
[17] = target: HIV-1 Env of pseudovirus CNE21 (HIV-1)
[18] = target: HIV-1 Env of pseudovirus 9004SS_A3_4 (HIV-1)
[19] = target: HIV-1 Env of pseudovirus X2131_C1_B5 (HIV-1)
[20] = target: HIV-1 Env of pseudovirus CNE17 (HIV-1)
[21] = target: HIV-1 Env of pseudovirus AC10.0.29 (HIV-1)
[22] = target: HIV-1 Env of pseudovirus CAAN5342.A2 (HIV-1)
[23] = target: HIV-1 Env of pseudovirus T250-4 (HIV-1)
[24] = target: HIV-1 Env of pseudovirus ZM249M.PL1 (HIV-1)
[25] = target: HIV-1 Env of pseudovirus Q23.17 (HIV-1)
[26] = target: HIV-1 Env of pseudovirus ZM197M.PB7 (HIV-1)
[27] = target: HIV-1 Env of pseudovirus Ce1086_B2 (HIV-1)
[28] = target: HIV-1 Env of pseudovirus 191821_E6_1 (HIV-1)
[29] = target: HIV-1 Env of pseudovirus Ce2060_G9 (HIV-1)
[30] = target: HIV-1 Env of pseudovirus X1193_c1 (HIV-1)
[31] = target: HIV-1 Env of pseudovirus ZM109F.PB4 (HIV-1)
[32] = target: HIV-1 Env of pseudovirus ZM233M.PB6 (HIV-1)
[33] = target: HIV-1 Env of pseudovirus 6041.v3.c23 (HIV-1)
[34] = target: HIV-1 Env of pseudovirus Du172.17 (HIV-1)
[35] = target: HIV-1 Env of pseudovirus Du156.12 (HIV-1)
[36] = target: HIV-1 Env of pseudovirus X2088_c9 (HIV-1)
[37] = target: HIV-1 Env of pseudovirus 211-9 (HIV-1)
[38] = target: HIV-1 Env of pseudovirus WEAU_d15_410_787 (HIV-1)
[39] = target: HIV-1 Env of pseudovirus Ce704809221_1B3 (HIV-1)
[40] = target: HIV-1 Env of pseudovirus BJOX009000.02.4 (HIV-1)

Question: What does the source list for 354BG8 (antibody)?
Answer: IC50 in TZM-bl assay [1]: > 10 µg/mL; IC80 in TZM-bl assay [1]: > 10 µg/mL; IC50 in TZM-bl assay [2]: 0.038 µg/mL; IC80 in TZM-bl assay [2]: 0.131 µg/mL; IC50 in TZM-bl assay [3]: > 10 µg/mL; IC80 in TZM-bl assay [3]: > 10 µg/mL; IC50 in TZM-bl assay [4]: 0.011 µg/mL; IC80 in TZM-bl assay [4]: 0.047 µg/mL; IC50 in TZM-bl assay [5]: 1.99 µg/mL; IC80 in TZM-bl assay [5]: 9.76 µg/mL; IC50 in TZM-bl assay [6]: 1.71 µg/mL; IC80 in TZM-bl assay [6]: > 10 µg/mL; IC50 in TZM-bl assay [7]: 0.399 µg/mL; IC80 in TZM-bl assay [7]: 2.29 µg/mL; IC50 in TZM-bl assay [8]: > 10 µg/mL; IC80 in TZM-bl assay [8]: > 10 µg/mL; IC50 in TZM-bl assay [9]: 0.048 µg/mL; IC80 in TZM-bl assay [9]: 0.222 µg/mL; IC50 in TZM-bl assay [10]: 0.026 µg/mL; IC80 in TZM-bl assay [10]: 0.108 µg/mL; IC50 in TZM-bl assay [11]: 0.011 µg/mL; IC80 in TZM-bl assay [11]: 0.039 µg/mL; IC50 in TZM-bl assay [12]: 0.017 µg/mL; IC80 in TZM-bl assay [12]: 0.048 µg/mL; IC50 in TZM-bl assay [13]: > 10 µg/mL; IC80 in TZM-bl assay [13]: > 10 µg/mL; IC50 in TZM-bl assay [14]: 0.075 µg/mL; IC80 in TZM-bl assay [14]: > 10 µg/mL; IC50 in TZM-bl assay [15]: > 10 µg/mL; IC80 in TZM-bl assay [15]: > 10 µg/mL; IC50 in TZM-bl assay [16]: 0.165 µg/mL; IC80 in TZM-bl assay [16]: 0.476 µg/mL; IC50 in TZM-bl assay [17]: 0.047 µg/mL; IC80 in TZM-bl assay [17]: 0.124 µg/mL; IC50 in TZM-bl assay [18]: 0.012 µg/mL; IC80 in TZM-bl assay [18]: 0.032 µg/mL; IC50 in TZM-bl assay [19]: 0.014 µg/mL; IC80 in TZM-bl assay [19]: 0.056 µg/mL; IC50 in TZM-bl assay [20]: 1.18 µg/mL; IC80 in TZM-bl assay [20]: 4.85 µg/mL; IC50 in TZM-bl assay [21]: 0.015 µg/mL; IC80 in TZM-bl assay [21]: 0.043 µg/mL; IC50 in TZM-bl assay [22]: 0.005 µg/mL; IC80 in TZM-bl assay [22]: 0.019 µg/mL; IC50 in TZM-bl assay [23]: 0.002 µg/mL; IC80 in TZM-bl assay [23]: 0.005 µg/mL; IC50 in TZM-bl assay [24]: > 10 µg/mL; IC80 in TZM-bl assay [24]: > 10 µg/mL; IC50 in TZM-bl assay [25]: 0.005 µg/mL; IC80 in TZM-bl assay [25]: 0.015 µg/mL; IC50 in TZM-bl assay [26]: > 10 µg/mL; IC80 in TZM-bl assay [26]: > 10 µg/mL; IC50 in TZM-bl assay [27]: > 10 µg/mL; IC80 in TZM-bl assay [27]: > 10 µg/mL; IC50 in TZM-bl assay [28]: > 10 µg/mL; IC80 in TZM-bl assay [28]: > 10 µg/mL; IC50 in TZM-bl assay [29]: > 10 µg/mL; IC80 in TZM-bl assay [29]: > 10 µg/mL; IC50 in TZM-bl assay [30]: 0.07 µg/mL; IC80 in TZM-bl assay [30]: 0.207 µg/mL; IC50 in TZM-bl assay [31]: > 10 µg/mL; IC80 in TZM-bl assay [31]: > 10 µg/mL; IC50 in TZM-bl assay [32]: 0.058 µg/mL; IC80 in TZM-bl assay [32]: 0.371 µg/mL; IC50 in TZM-bl assay [33]: > 10 µg/mL; IC80 in TZM-bl assay [33]: > 10 µg/mL; IC50 in TZM-bl assay [34]: 0.049 µg/mL; IC80 in TZM-bl assay [34]: 0.194 µg/mL; IC50 in TZM-bl assay [35]: 0.01 µg/mL; IC80 in TZM-bl assay [35]: 0.036 µg/mL; IC50 in TZM-bl assay [36]: 0.003 µg/mL; IC80 in TZM-bl assay [36]: 0.01 µg/mL; IC50 in TZM-bl assay [37]: 0.065 µg/mL; IC80 in TZM-bl assay [37]: 0.403 µg/mL; IC50 in TZM-bl assay [38]: 0.031 µg/mL; IC80 in TZM-bl assay [38]: 0.112 µg/mL; IC50 in TZM-bl assay [39]: 0.084 µg/mL; IC80 in TZM-bl assay [39]: 0.395 µg/mL; IC50 in TZM-bl assay [40]: > 10 µg/mL; IC80 in TZM-bl assay [40]: > 10 µg/mL
